Reference: patent publication US20240327815A1 (Zymeworks, published 2024)

Key:
[1] = target: Alpha SARS-CoV-2 spike on pseudotyped lentivirus (SARS-CoV-2, UniProt P0DTC2 14-1273); test: cell-based or functional assay
[2] = target: Beta SARS-CoV-2 spike on pseudotyped lentivirus (SARS-CoV-2, UniProt P0DTC2 14-1273); test: cell-based or functional assay
[3] = target: P.1 (Gamma) SARS-CoV-2 spike protein, plate-coated (MSD) (SARS-CoV-2, UniProt P0DTC2 14-1208); test: MSD competition vs labelled ACE2

B1: REGN10933 (Casirivimab) (antibody, V domains shown)
VH: QVQLVESGGGLVKPGGSLRLSCAASGFTFSDYYMSWIRQAPGKGLEWVSYITYSGSTIYYADSVKGRFTISRDNAKSSLYLQMNSLRAEDTAVYYCARDRGTTMVPFDYWGQGTLVTVSS
VL: DIQMTQSPSSLSASVGDRVTITCQASQDITNYLNWYQQKPGKAPKLLIYAASNLETGVPSRFSGSGSGTDFTFTISGLQPEDIATYYCQQYDNLPLTFGGGTKVEIKR
[1]
  Pseudovirus Neutralization (IC50, nM): 0.05 nM

B2: REGN10987 (Imdevimab) (antibody, V domains shown)
VH: QVQLVESGGGVVQPGRSLRLSCAASGFTFSNYAMYWVRQAPGKGLEWVAVISYDGSNKYYADSVKGRFTISRDNSKNTLYLQMNSLRTEDTAVYYCASGSDYGDYLLVYWGQGTLVTVSS
VL: QSALTQPASVSGSPGQSITISCTGTSSDVGGYNYVSWYQQHPGKAPKLMIYDVSKRPSGVSNRFSGSKSGNTASLTISGLQSEDEADYYCNSLTSISTWVFGGGTKLTVLR
[1]
  Pseudovirus Neutralization (IC50, nM): 0.13 nM
[2]
  Pseudovirus Neutralization (IC50, nM): 41.1 nM

B3: Bamlanivimab (antibody, V domains shown)
VH: QVQLVQSGAEVKKPGSSVKVSCKASGGTFSNYAISWVRQAPGQGLEWMGRIIPILGIANYAQKFQGRVTITADKSTSTAYMELSSLRSEDTAVYYCARGYYEARHYYYYYAMDVWGQGTAVTVSS
VL: not shown
[1]
  Pseudovirus Neutralization (IC50, nM): 1.9 nM
[2]
  Pseudovirus Neutralization (IC50, nM): > 100 nM

B4: Etesevimab (antibody, V domains shown)
VH: EVQLVESGGGLVQPGGSLRLSCAASGFTVSSNYMSWVRQAPGKGLEWVSVIYSGGSTFYADSVKGRFTISRDNSMNTLFLQMNSLRAEDTAVYYCARVLPMYGDYLDYWGQGTLVTVSS
VL: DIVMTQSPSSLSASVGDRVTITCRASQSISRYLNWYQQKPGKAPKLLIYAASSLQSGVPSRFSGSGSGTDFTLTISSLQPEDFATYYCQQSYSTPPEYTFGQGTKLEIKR
[3]
  IC50: 0.08 nM
